Measured values from article PMC4987513, “Phytochrome B and REVEILLE1/2-mediated signalling controls seed dormancy and germination in Arabidopsis”.

B1: GA3ox2 E4 (3 copies) mutant (dsDNA)
DNA 1: AAGTACGTCTCAGTACCAAAAAGTACGTCTCAGTACCAAAAAGTACGTCTCAGTACCAAA
DNA 2: TTTGGTACTGAGACGTACTTTTTGGTACTGAGACGTACTTTTTGGTACTGAGACGTACTT
B2: GA3ox2 E3 (3 copies) WT (dsDNA)
DNA 1: GTTTAACGATATTAGTTTTTGTTTAACGATATTAGTTTTTGTTTAACGATATTAGTTTTT
DNA 2: AAAAACTAATATCGTTAAACAAAAACTAATATCGTTAAACAAAAACTAATATCGTTAAAC
B3: GA3ox2 E4 (3 copies) WT (dsDNA)
DNA 1: AAGTATCATATCATACCAAAAAGTATCATATCATACCAAAAAGTATCATATCATACCAAA
DNA 2: TTTGGTATGATATGATACTTTTTGGTATGATATGATACTTTTTGGTATGATATGATACTT
B4: GA3ox2 E3 (3 copies) mutant (dsDNA)
DNA 1: GTTTAACGGGATAGGTTTTTGTTTAACGGGATAGGTTTTTGTTTAACGGGATAGGTTTTT
DNA 2: AAAAACCTATCCCGTTAAACAAAAACCTATCCCGTTAAACAAAAACCTATCCCGTTAAAC

Legend:
Details in all cases: protein: recombinant; tags: His; blunt
[1] = target: T1, HIS-RVE1 (Arabidopsis thaliana, UniProt F4KGY6 1-387); test: competition; unlabelled 50x excess vs biotin-E4 probe; no effect on shift; LightShift Chemiluminescent EMSA Kit (Pierce) per manufacturer, 5% polyacrylamide gel; buffer, salt, pH and temperature not stated
T1 sequence (F4KGY6 whole entry): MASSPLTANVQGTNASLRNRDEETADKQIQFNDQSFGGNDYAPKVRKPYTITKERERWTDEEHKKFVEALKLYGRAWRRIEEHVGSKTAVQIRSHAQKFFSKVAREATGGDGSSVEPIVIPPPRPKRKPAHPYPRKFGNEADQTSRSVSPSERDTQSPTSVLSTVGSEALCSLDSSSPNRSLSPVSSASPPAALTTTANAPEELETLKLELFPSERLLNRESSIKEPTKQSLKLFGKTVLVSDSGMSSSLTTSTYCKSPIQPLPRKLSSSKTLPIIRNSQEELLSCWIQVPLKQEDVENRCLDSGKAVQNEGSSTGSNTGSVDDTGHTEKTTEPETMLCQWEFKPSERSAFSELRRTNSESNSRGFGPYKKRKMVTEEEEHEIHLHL

[2] = target: T1, HIS-RVE1; test: EMSA; LightShift Chemiluminescent EMSA Kit (Pierce) per manufacturer, 5% polyacrylamide gel; buffer, salt, pH and temperature not stated
[3] = target: T1, HIS-RVE1; test: competition; unlabelled 50x excess vs biotin-E3 probe; no effect on shift; LightShift Chemiluminescent EMSA Kit (Pierce) per manufacturer, 5% polyacrylamide gel; buffer, salt, pH and temperature not stated

Binder	binding result [2]	also measured
B1	–	binding result [1]: no binding
B2	binds	–
B3	binds	–
B4	–	binding result [3]: no binding
